How the values were obtained:
[1] = test system: HD-polyQ-GFP aggregation in COS-7, BHK-21 and HEK 293 cells; experiment: Quantitation of SDS-insoluble fluorescent aggregates after co-transfection of sFv and HD-polyQ-GFP; format: cell-based; settings: for number of SDS-insoluble fluorescent aggregates: intrabody to antigen plasmid ratio 5:1, HD-polyQ72 or Q104, 48 hours, COS-7, BHK-21, HEK 293, versus empty vector/control
Experimental: Cells are shown photographed live at 48 hours after transfection by the calcium phosphate method; aggregates appear as intense foci of GFP signals. […] […] Cells were lysed with 2% SDS/2% Triton X-100/50 mM Tris at 48 hours after co-transfection. The number of insoluble, fluorescent aggregates in six or eight random fields was counted. Bars represent means of sextuplicate co-transfections ±SEM.
In particular, it was observed that the formation of pathological HD aggregates in situ display a striking punctate fluorescent morphology with polyglutamine lengths of 40 or more residues (i.e., with Q72 or Q104, but not Q25; FIG. 14). In addition, because these polypeptide aggregates are detergent-insoluble, a method for improved quantitation of residual fluorescent bodies after SDS lysis of transfected cells could be performed (Kazantsev et al., PNAS 96:11404-11409 (1999)). This improved assay allows for polypeptide aggregates to be more accurately enumerated because the plane of focus is eliminated as a variable in the experiment. Accordingly, this assay was utilized for quantitation of polyQ antigen aggregation, alone or in the presence of C4 sFv or control intrabody. COS-7, BHK, and 293 cells were co-transfected with plasmids that express the C4 or a control intrabody and HD-polyQ-eGFP fusions containing Q25, Q72, or Q104.

[2] = target: T1, biotinylated HD-peptide (HD peptide (1-17), N-terminal huntingtin) (Homo sapiens, UniProt P42858); experiment: Kinetic binding analysis by surface plasmon resonance (BIAcore 2000); settings: corresponding to the Kd
T1 construct: host or cells: chemical peptide synthesis
Experimental: A range of concentration (60 to 100 nM) of anti-huntingtin intrabody C4 sFv was used to measure the association rate (kon) on 50 RU of biotinylated-HD peptide bound to a streptavidin sensor chip.
The Kd of purified scFv clone C4 was determined by using surface plasmon resonance in a BIAcore 2000 (Biacore AG, Uppsala, Sweden). In a BIAcore flow cell, approximately 50 resonance units (RU) of biotinylated HD-peptide (250 nM in 1M NaCl and 50 mM NaOH) was coupled to a streptavidin sensor chip, pre-conditioned with three consecutive 1-minute injections of 1 M NaCl in 50 mM NaOH. […] Association was measured under a continuous flow of 5 μl/min with a concentration range from 60 to 100 nM, The kon was determined from a plot of In (dR/dt)/t versus concentration, where R is response and t is time (Karlsson et al., J. Immunol. Methods 145: 229-240 (1991)). The koff was determined from the dissociation part of the sensorgram at the highest concentration of intrabody analyzed by using a flow rate of 20 μl/min. The Kd was calculated as koff/kon.
To characterize the precise binding properties of the intrabody of the invention, further qualitative and quantitative studies of sFv binding to immobilized antigen were conducted in vitro. […] The kinetics of association and dissociation were determined for the C4 sFv antibody in the BIAcore 2000 (FIG. 11B).

[3] = test system: HD-72Q-GFP protein expression; experiment: Immunoblot of HD-72Q-GFP protein expression in co-transfections; format: cell-based; settings: 5:1 co-transfections, 24 hours, different transfection paradigms
Experimental: Some aggregates are found in 104Q co-transfections (never in 25Q), often in cells not expressing C4 (arrowheads), but in some dually-transfected cells as well (arrow). […] Cell lysates were collected from 5:1 co-transfections (sFv:HD-72Q-GFP) in duplicate at 24 hours (prior to prominent aggregate formation and loss of HD-72Q-GFP to the insoluble compartment) and subjected to SDS-PAGE. The membrane was probed with 1:1000 […] primary antibody (Quantum), stripped and reprobed with 1:500 anti-actin antibody (Sigma). HD-72Q-GFP bands were of similar intensity after detection by HRP-conjugated secondary antibody and chemiluminescence.
The typical intrabody constructs were fused to a C-terminal hemagglutinin (HA) peptide tag to facilitate immunodetection of the protein, while keeping the protein localized to the cytosol. […] The diffuse labeling was also characteristic of the normal length (25Q) construct, with or without intrabody co-transfection (FIG. 15).

B1: C4 sFv: human single-chain Fv intrabody from phage display, specific for the 17 N-terminal residues of huntingtin; SEQ ID NO: 6 (protein)
scFv: QVQLQESGGGLVQPGGSLRLSCAASGFTFSSYSMSWVRQAPGKGLEWVAVISYDGSNKYYADSVKGRFTISRDNSKNTLYLQMNSLRAEDTAVYYCARDRYFDLWGRGTLVTVSSGGGGSGGGGSGGGGSQSALTQPASVSGSPGQSITISCTGTSSDIGAYNYVSWYQQYPGKAPKLLIYDVSNRPSGISNRFSGSKSGDTASLTISGLQAEDEADYYCSSFANSGPLFGGGTKVTVL
extent of aggregation ([1]; intrabody to antigen plasmid ratio 3:1, HD-polyQ72-eGFP or HD-polyQ104-eGFP): qualitative decrease in the extent of aggregation
number of SDS-insoluble fluorescent aggregates [1]: pronounced reduction in aggregation
number of SDS-insoluble fluorescent aggregates ([1]; listed as C4): significantly reduced the number of aggregates
binding affinity (Ka) [2]: 1.3e+08 M⁻¹
HD protein expression level [3]: indistinguishable levels of products
